The target of assay [1] is T1, CXCL8 (Homo sapiens, UniProt P10145).
T1 sequence (P10145 23-99): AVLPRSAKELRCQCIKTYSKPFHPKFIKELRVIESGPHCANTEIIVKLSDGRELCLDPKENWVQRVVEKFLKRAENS
Nature of the assay: 1H-15N HSQC NMR titration ([…] sY, […]N-CXCL8). Format: binding.

For assay [2], the target named is CXCR1 (Homo sapiens) (UniProt P25024). To be noted: cited from earlier work.
Assay [3] deals with CXCR2 (Homo sapiens) (UniProt P25025). To be noted: cited from earlier work.

For orientation: Kd means the equilibrium constant for the complex coming apart.

CXCR2 (Homo sapiens), sequence (P25025 whole entry): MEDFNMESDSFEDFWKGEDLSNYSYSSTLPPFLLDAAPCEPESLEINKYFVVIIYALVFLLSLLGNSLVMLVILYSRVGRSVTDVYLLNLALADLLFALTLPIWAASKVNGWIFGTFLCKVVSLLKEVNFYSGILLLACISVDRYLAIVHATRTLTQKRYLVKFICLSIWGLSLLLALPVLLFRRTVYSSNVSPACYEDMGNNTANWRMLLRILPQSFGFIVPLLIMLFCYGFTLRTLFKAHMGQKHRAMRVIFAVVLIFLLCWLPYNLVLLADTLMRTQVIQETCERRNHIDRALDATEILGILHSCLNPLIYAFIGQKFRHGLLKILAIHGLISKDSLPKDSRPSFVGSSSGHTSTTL
CXCR1 (Homo sapiens), sequence (P25024 whole entry): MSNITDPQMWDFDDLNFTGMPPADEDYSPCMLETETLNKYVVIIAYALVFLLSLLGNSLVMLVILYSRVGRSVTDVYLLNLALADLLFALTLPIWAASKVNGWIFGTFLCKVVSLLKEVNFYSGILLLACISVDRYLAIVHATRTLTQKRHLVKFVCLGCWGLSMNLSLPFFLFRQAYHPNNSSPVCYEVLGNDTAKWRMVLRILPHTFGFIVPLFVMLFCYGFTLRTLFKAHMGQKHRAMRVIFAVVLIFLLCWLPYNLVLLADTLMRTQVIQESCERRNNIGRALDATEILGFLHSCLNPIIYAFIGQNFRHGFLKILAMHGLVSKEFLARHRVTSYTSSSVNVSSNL

For the compound `N[C@@H](Cc1ccc(OS(=O)(=O)O)cc1)C(=O)O` [sY, sulfotyrosine], the affinity in assay [1], expressed as Kd, was 35200 ± 1950 µM.

In the case of CXCL5 (from UniProt P42830), the dissociation constant (Kd) in assay [2] is 0.04 µM; in assay [3] it was 0.011 µM.
